# Reference: the supplement of paper PMC9233669
# Variants at the floor of the assay were thinned out.
# System: biotinyl-Phe-oxazolone
# Assay: self-aminoacylation, catalytic enhancement (BFO) (fold over background); higher = more active; k-Seq, kA / k0A0; sequences stand for … in GGGAAUGGAUCCACAUCUACGAAUUC…UUCACUGCAGACUUGACGAAGCUG
# Summary of the method: (§1)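 Catalytic enhancement equals the median kA over the uncatalyzed rate, the latter read from the low-activity peak of a bimodal Gaussian fit. Values of kA came from fitting each sequence's fraction reacted to a pseudo-first-order model, with 1000 bootstraps. Reacted RNA was captured with streptavidin and quantified by triplicate qPCR and Illumina sequencing after 90 minutes at room temperature with 2–1250 μM biotinyl-aminoacyl-oxazolone and 0.43 μM mutagenized RNA pools bearing a 21-nt variable region.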
row,Sequence,self-aminoacylation
1,AAACACUUCAAGCAAUCGGUC [Fam1B.1 aminoacylation ribozyme variant],18
2,AAGCUUGCUAAUAGUCUCAAG [Fam3.1 aminoacylation ribozyme variant],2.19
3,AAGGUUGCUGAUAGUCGCAAG [Fam3.1 aminoacylation ribozyme variant],2.05
4,AAGUAGGCUAAUAGUCGCAAG [Fam3.1 aminoacylation ribozyme variant],3.24
5,AAGUAUGCUAAAAGUCGCAAG [Fam3.1 aminoacylation ribozyme variant],8.97
6,AAGUCUGCUAAGAGUCGCAAG [Fam3.1 aminoacylation ribozyme variant],4.79
7,AAGUCUGCUAUUAGUCGCAAG [Fam3.1 aminoacylation ribozyme variant],4.82
8,AAGUUAGCUAAGAGUCGCAAG [Fam3.1 aminoacylation ribozyme variant],2.38
9,AAGUUAGCUAAUAGUCGAAAG [Fam3.1 aminoacylation ribozyme variant],3.83
10,AAGUUAGCUGAUAGUCGCAAG [Fam3.1 aminoacylation ribozyme variant],2.26
11,AAGUUCGCUGAUAGUCGCAAG [Fam3.1 aminoacylation ribozyme variant],5.75
12,AAGUUGUCUAAUAGUCGCAAG [Fam3.1 aminoacylation ribozyme variant],2.35
13,AAGUUUACCAAUAGUCGCAAG [Fam3.1 aminoacylation ribozyme variant],2.58
14,AAGUUUACUAAUAGCCGCAAG [Fam3.1 aminoacylation ribozyme variant],2.1
15,AAGUUUACUAAUAGGCGCAAG [Fam3.1 aminoacylation ribozyme variant],2.02
16,AAGUUUGCGAAUAGUGGCAAG [Fam3.1 aminoacylation ribozyme variant],2.12
17,AAGUUUGCUAAUAGUAGCAAA [Fam3.1 aminoacylation ribozyme variant],2.93
18,AAGUUUGCUAAUCGUCGCAAG [Fam3.1 aminoacylation ribozyme variant],3.12
19,AAGUUUGCUAAUGGUCGCACG [Fam3.1 aminoacylation ribozyme variant],2.96
20,AAGUUUGCUCAUCGUCGCAAG [Fam3.1 aminoacylation ribozyme variant],3.33
21,AAGUUUGCUUAUAGUCGCAGG [Fam3.1 aminoacylation ribozyme variant],2.26
22,AAGUUUGUUAAUAGUCGCAAG [Fam3.1 aminoacylation ribozyme variant],2.01
23,AAGUUUUCUAAUAGUCGCAAC [Fam3.1 aminoacylation ribozyme variant],2.43

row,Sequence,self-aminoacylation
1,AAGUUUUCUAAUUGUCGCAAG [Fam3.1 aminoacylation ribozyme variant],2.33
2,AAGUUUUCUUAUAGUCGCAAG [Fam3.1 aminoacylation ribozyme variant],3.91
3,AAUUUUGCUAAGAGUCGCAAG [Fam3.1 aminoacylation ribozyme variant],2.23
4,AAUUUUGCUAAUAGUCGCCAG [Fam3.1 aminoacylation ribozyme variant],2.69
5,ACGUUUGCUAAUGGUCGCAAG [Fam3.1 aminoacylation ribozyme variant],3.94
6,AGGUUUGCUAAUAGUCGCAUG [Fam3.1 aminoacylation ribozyme variant],3.56
7,AUACGUCAAACAAUCGGUCUG [Fam1A.1 aminoacylation ribozyme variant],5.56
8,AUCCACCUAGGUCAUCGUGUG [Fam2.2 aminoacylation ribozyme variant],3.96
9,AUUACCCGGGUCGUCGAGUGA [Fam2.1 aminoacylation ribozyme variant],3.86
10,AUUACCCUGGGCAUCGUGUGA [Fam2.1 aminoacylation ribozyme variant],7.88
11,AUUACCCUGGUCAACGUGUGA [Fam2.1 aminoacylation ribozyme variant],4.08
12,AUUACCCUGGUCGUCGAGGGA [Fam2.1 aminoacylation ribozyme variant],6.85
13,AUUACCCUGUUCAUCAAGUGA [Fam2.1 aminoacylation ribozyme variant],2.65
14,AUUAUCCUGGUCAUCGAGUUA [Fam2.1 aminoacylation ribozyme variant],2.02
15,AUUCACCAAGGUCAUCGUGUG [Fam2.2 aminoacylation ribozyme variant],8.03
16,AUUCACCGAGGUCAUCGUGUG [Fam2.2 aminoacylation ribozyme variant],6.45
17,AUUCACCUAGGACAUCGUGUG [Fam2.2 aminoacylation ribozyme variant],3.71
18,AUUCACCUAGGUCACAGGGUG [Fam2.2 aminoacylation ribozyme variant],5.68
19,AUUCACCUAGGUCACCGGAUG [Fam2.2 aminoacylation ribozyme variant],2.86
20,AUUCACCUAGGUCAUUGGUUG [Fam2.2 aminoacylation ribozyme variant],2.3
21,AUUCACCUAGGUCGUCGGUUG [Fam2.2 aminoacylation ribozyme variant],4.19
22,AUUCACCUAGGUCUUCGGGAG [Fam2.2 aminoacylation ribozyme variant],4.51
23,AUUCAGCUAGGUCAUCGUGUG [Fam2.2 aminoacylation ribozyme variant],3.57

row,Sequence,self-aminoacylation
1,AUUCAUCUAGGUCAUCGGCUG [Fam2.2 aminoacylation ribozyme variant],4.5
2,CAACUGCAAACAAUCGGUCUG [Fam1A.1 aminoacylation ribozyme variant],4.06
3,CAGUUUGCUAAUAGUCGAAAG [Fam3.1 aminoacylation ribozyme variant],2.53
4,CCACACUUCAAGAAAUCAGUC [Fam1B.1 aminoacylation ribozyme variant],4.56
5,CCACACUUCAAGCGAUGGGUC [Fam1B.1 aminoacylation ribozyme variant],3.56
6,CCACACUUCAAGCUAUCGCUC [Fam1B.1 aminoacylation ribozyme variant],2.03
7,CCACACUUCACGCAUUCGGUC [Fam1B.1 aminoacylation ribozyme variant],2.45
8,CCACUUCAAACAACCGGUCUG [Fam1A.1 aminoacylation ribozyme variant],2.13
9,CGACUUCAGACAAUCGGUCUG [Fam1A.1 aminoacylation ribozyme variant],3.95
10,CUAAUUCAAACAAUCGGUCGG [Fam1A.1 aminoacylation ribozyme variant],2.14
11,CUACGUCAAAGAAUCGGUCUG [Fam1A.1 aminoacylation ribozyme variant],3.41
12,CUACGUCAACCAAUCGGUCUG [Fam1A.1 aminoacylation ribozyme variant],3.4
13,CUACUUCAAACAAUCACUCUG [Fam1A.1 aminoacylation ribozyme variant],2.98
14,CUACUUGAAACAAGCGGUCUG [Fam1A.1 aminoacylation ribozyme variant],4.76
15,CUUACCCUGGUCGUCGAGUGA [Fam2.1 aminoacylation ribozyme variant],5.47
16,GAGGUUGCUAAUAGUCGCAAG [Fam3.1 aminoacylation ribozyme variant],3.14
17,GAGUUUGCUAAGAGUCGCAAG [Fam3.1 aminoacylation ribozyme variant],3.01
18,UAGUUUGCUAAUAGUCGCAUG [Fam3.1 aminoacylation ribozyme variant],3.23
19,UAGUUUGCUAAUAGUCUCAAG [Fam3.1 aminoacylation ribozyme variant],3.9
20,UUACUGCAAACAAUCGGUCUG [Fam1A.1 aminoacylation ribozyme variant],4.6
21,UUACUUCGAACAAUCGGUCUG [Fam1A.1 aminoacylation ribozyme variant],2.19

# System: biotinyl-Trp-oxazolone
# Assay: self-aminoacylation, catalytic enhancement (BWO) (fold over background); higher = more active; k-Seq, kA / k0A0; sequences stand for … in GGGAAUGGAUCCACAUCUACGAAUUC…UUCACUGCAGACUUGACGAAGCUG
# Summary of the method: as §1
row,Sequence,self-aminoacylation
1,AAACACUUCAAGCAAUCGGUC [Fam1B.1 aminoacylation ribozyme variant],11.9
2,AAAUUUGCUAAUAUUCGCAAG [Fam3.1 aminoacylation ribozyme variant],2.01
3,AAGAUUGCUAAUAGGCGCAAG [Fam3.1 aminoacylation ribozyme variant],2.61
4,AAGUAUGCUAAAAGUCGCAAG [Fam3.1 aminoacylation ribozyme variant],3.97
5,AAGUUAGCUAAUCGUCGCAAG [Fam3.1 aminoacylation ribozyme variant],2.21
6,AAGUUGGCUAAUAGUCACAAG [Fam3.1 aminoacylation ribozyme variant],2.29
7,AAGUUUGCUAAGAGUCGCCAG [Fam3.1 aminoacylation ribozyme variant],2.06
8,AAGUUUGCUAAUUGUCGCAAC [Fam3.1 aminoacylation ribozyme variant],2.13
9,AAUUUUGCUAAUAGUCGCUAG [Fam3.1 aminoacylation ribozyme variant],2.24
10,AUUCACCUAGGUCAUUAGGUG [Fam2.2 aminoacylation ribozyme variant],2.24
11,CCACACUUCAAACAAUCGGGC [Fam1B.1 aminoacylation ribozyme variant],2.65
12,CUACUUCAAACACCCGGUCUG [Fam1A.1 aminoacylation ribozyme variant],2.08
